In experiment [1] the target is Endothelin-1 (Homo sapiens) (UniProt P05305). The settings on record: cited from earlier work.
A further experiment addresses T1, Gαi3 protein, P08754.
T1 chain: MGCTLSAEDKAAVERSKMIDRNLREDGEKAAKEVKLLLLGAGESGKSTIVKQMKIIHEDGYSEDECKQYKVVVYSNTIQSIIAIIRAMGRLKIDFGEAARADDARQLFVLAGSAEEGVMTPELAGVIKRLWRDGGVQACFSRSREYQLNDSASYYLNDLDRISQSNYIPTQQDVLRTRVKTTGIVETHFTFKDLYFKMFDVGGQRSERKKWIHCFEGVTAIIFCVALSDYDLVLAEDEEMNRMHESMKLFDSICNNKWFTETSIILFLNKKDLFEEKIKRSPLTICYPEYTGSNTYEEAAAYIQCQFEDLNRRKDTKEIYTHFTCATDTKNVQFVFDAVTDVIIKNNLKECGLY
Put plainly: ELISA (immobilized Gαi3, bound P9-ETA detected with anti-P9 antibody). To be noted: chain shown with the change; 1 μM mutant; parent: est. 100; read off a plot. (In general: An ELISA detects its analyte on a solid surface through an enzyme-linked reagent.)

For experiment [2], the target named is T2, C-terminally biotinylated endothelin-1.
T2 chain: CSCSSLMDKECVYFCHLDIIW
Put plainly: ELISA (immobilized purified P9-ETA proteins, bET-1 detected with SA-HRP). The settings on record: chain shown with the change; 5 μM bET-1; proteins reconstituted with APG; parent: est. 100; read off a plot.

By Kd is commonly meant the equilibrium constant for the complex coming apart.

In the case of “Endothelin receptor type A (P9-ETA fusion) (from UniProt P25101)”, the Kd in experiment [1] was 60 nM.

B1: wild type P9-ETA (human endothelin receptor type A with N-terminal P9 fusion), P25101 G261W (protein)
chain: DNPERYSTNLSNHVDDFTTFRGTELSFLVTTHQPTNLVLPSNGSMHNYCPQQTKITSAFKYINTVISCTIFIVGMVGNATLLRIIYQNKCMRNGPNALIASLALGDLIYVVIDLPINVFKLLAGRWPFDHNDFGVFLCKLFPFLQKSSVGITVLNLCALSVDRYRAVASWSRVQGIGIPLVTAIEIVSIWILSFILAIPEAIGFVMVPFEYRGEQHKTCMLNATSKFMEFYQDVKDWWLFWFYFCMPLVCTAIFYTLMTCEMLNRRNGSLRIALSEHLKQRREVAKTVFCLVVIFALCWFPLHLSRILKKTVYNEMDKNRCELLSFLLLMDYIGINLATMNSCINPIALYFVSKKFKNCFQSCLCCCCYQSKSLMTSVPMNGTSIQWKNHDQNNHNTDRSSHKDSMN
For the molecule B1, the percent of parent was 110 % of w.t with Gαi3 protein, P08754 and 31 % of w.t in experiment [2].

B2: wild type P9-ETA (human endothelin receptor type A with N-terminal P9 fusion), P25101 D35N (protein)
chain: DNPERYSTNLSNHVNDFTTFRGTELSFLVTTHQPTNLVLPSNGSMHNYCPQQTKITSAFKYINTVISCTIFIVGMVGNATLLRIIYQNKCMRNGPNALIASLALGDLIYVVIDLPINVFKLLAGRWPFDHNDFGVFLCKLFPFLQKSSVGITVLNLCALSVDRYRAVASWSRVQGIGIPLVTAIEIVSIWILSFILAIPEAIGFVMVPFEYRGEQHKTCMLNATSKFMEFYQDVKDWWLFGFYFCMPLVCTAIFYTLMTCEMLNRRNGSLRIALSEHLKQRREVAKTVFCLVVIFALCWFPLHLSRILKKTVYNEMDKNRCELLSFLLLMDYIGINLATMNSCINPIALYFVSKKFKNCFQSCLCCCCYQSKSLMTSVPMNGTSIQWKNHDQNNHNTDRSSHKDSMN
For the molecule B2, the percent of parent was 92 % of w.t with Gαi3 protein, P08754 and 29 % of w.t in experiment [2].

B3: wild type P9-ETA (human endothelin receptor type A with N-terminal P9 fusion), P25101 F346C (protein)
chain: DNPERYSTNLSNHVDDFTTFRGTELSFLVTTHQPTNLVLPSNGSMHNYCPQQTKITSAFKYINTVISCTIFIVGMVGNATLLRIIYQNKCMRNGPNALIASLALGDLIYVVIDLPINVFKLLAGRWPFDHNDFGVFLCKLFPFLQKSSVGITVLNLCALSVDRYRAVASWSRVQGIGIPLVTAIEIVSIWILSFILAIPEAIGFVMVPFEYRGEQHKTCMLNATSKFMEFYQDVKDWWLFGFYFCMPLVCTAIFYTLMTCEMLNRRNGSLRIALSEHLKQRREVAKTVFCLVVIFALCWFPLHLSRILKKTVYNEMDKNRCELLSCLLLMDYIGINLATMNSCINPIALYFVSKKFKNCFQSCLCCCCYQSKSLMTSVPMNGTSIQWKNHDQNNHNTDRSSHKDSMN
Consider B3, for which the percent of parent with Gαi3 protein, P08754 was 140 % of w.t; in experiment [2], 26 % of w.t.

B4: wild type P9-ETA (human endothelin receptor type A with N-terminal P9 fusion), P25101 S213L (protein)
chain: DNPERYSTNLSNHVDDFTTFRGTELSFLVTTHQPTNLVLPSNGSMHNYCPQQTKITSAFKYINTVISCTIFIVGMVGNATLLRIIYQNKCMRNGPNALIASLALGDLIYVVIDLPINVFKLLAGRWPFDHNDFGVFLCKLFPFLQKSSVGITVLNLCALSVDRYRAVASWSRVQGIGIPLVTAIEIVSIWILLFILAIPEAIGFVMVPFEYRGEQHKTCMLNATSKFMEFYQDVKDWWLFGFYFCMPLVCTAIFYTLMTCEMLNRRNGSLRIALSEHLKQRREVAKTVFCLVVIFALCWFPLHLSRILKKTVYNEMDKNRCELLSFLLLMDYIGINLATMNSCINPIALYFVSKKFKNCFQSCLCCCCYQSKSLMTSVPMNGTSIQWKNHDQNNHNTDRSSHKDSMN
With B4, the percent of parent with Gαi3 protein, P08754 is 160 % of w.t; in experiment [2], 130 % of w.t.

B5: wild type P9-ETA (human endothelin receptor type A with N-terminal P9 fusion), P25101 F161L (protein)
chain: DNPERYSTNLSNHVDDFTTFRGTELSFLVTTHQPTNLVLPSNGSMHNYCPQQTKITSAFKYINTVISCTIFIVGMVGNATLLRIIYQNKCMRNGPNALIASLALGDLIYVVIDLPINVFKLLAGRWPFDHNDFGVFLCKLLPFLQKSSVGITVLNLCALSVDRYRAVASWSRVQGIGIPLVTAIEIVSIWILSFILAIPEAIGFVMVPFEYRGEQHKTCMLNATSKFMEFYQDVKDWWLFGFYFCMPLVCTAIFYTLMTCEMLNRRNGSLRIALSEHLKQRREVAKTVFCLVVIFALCWFPLHLSRILKKTVYNEMDKNRCELLSFLLLMDYIGINLATMNSCINPIALYFVSKKFKNCFQSCLCCCCYQSKSLMTSVPMNGTSIQWKNHDQNNHNTDRSSHKDSMN
With B5, the percent of parent with Gαi3 protein, P08754 was 120 % of w.t; in experiment [2], 50 % of w.t.

B6: wild type P9-ETA (human endothelin receptor type A with N-terminal P9 fusion), P25101 L59P (protein)
chain: DNPERYSTNLSNHVDDFTTFRGTELSFLVTTHQPTNLVPPSNGSMHNYCPQQTKITSAFKYINTVISCTIFIVGMVGNATLLRIIYQNKCMRNGPNALIASLALGDLIYVVIDLPINVFKLLAGRWPFDHNDFGVFLCKLFPFLQKSSVGITVLNLCALSVDRYRAVASWSRVQGIGIPLVTAIEIVSIWILSFILAIPEAIGFVMVPFEYRGEQHKTCMLNATSKFMEFYQDVKDWWLFGFYFCMPLVCTAIFYTLMTCEMLNRRNGSLRIALSEHLKQRREVAKTVFCLVVIFALCWFPLHLSRILKKTVYNEMDKNRCELLSFLLLMDYIGINLATMNSCINPIALYFVSKKFKNCFQSCLCCCCYQSKSLMTSVPMNGTSIQWKNHDQNNHNTDRSSHKDSMN
In the case of B6, the percent of parent was 93 % of w.t in the experiment with Gαi3 protein, P08754 and 66 % of w.t in experiment [2].

B7: wild type P9-ETA (human endothelin receptor type A with N-terminal P9 fusion), P25101 C69S (protein)
chain: DNPERYSTNLSNHVDDFTTFRGTELSFLVTTHQPTNLVLPSNGSMHNYSPQQTKITSAFKYINTVISCTIFIVGMVGNATLLRIIYQNKCMRNGPNALIASLALGDLIYVVIDLPINVFKLLAGRWPFDHNDFGVFLCKLFPFLQKSSVGITVLNLCALSVDRYRAVASWSRVQGIGIPLVTAIEIVSIWILSFILAIPEAIGFVMVPFEYRGEQHKTCMLNATSKFMEFYQDVKDWWLFGFYFCMPLVCTAIFYTLMTCEMLNRRNGSLRIALSEHLKQRREVAKTVFCLVVIFALCWFPLHLSRILKKTVYNEMDKNRCELLSFLLLMDYIGINLATMNSCINPIALYFVSKKFKNCFQSCLCCCCYQSKSLMTSVPMNGTSIQWKNHDQNNHNTDRSSHKDSMN
As to B7, the percent of parent in the experiment with Gαi3 protein, P08754 is 97 % of w.t; in experiment [2] it was 59 % of w.t.

B8: wild type P9-ETA (human endothelin receptor type A with N-terminal P9 fusion), P25101 M65K (protein)
chain: DNPERYSTNLSNHVDDFTTFRGTELSFLVTTHQPTNLVLPSNGSKHNYCPQQTKITSAFKYINTVISCTIFIVGMVGNATLLRIIYQNKCMRNGPNALIASLALGDLIYVVIDLPINVFKLLAGRWPFDHNDFGVFLCKLFPFLQKSSVGITVLNLCALSVDRYRAVASWSRVQGIGIPLVTAIEIVSIWILSFILAIPEAIGFVMVPFEYRGEQHKTCMLNATSKFMEFYQDVKDWWLFGFYFCMPLVCTAIFYTLMTCEMLNRRNGSLRIALSEHLKQRREVAKTVFCLVVIFALCWFPLHLSRILKKTVYNEMDKNRCELLSFLLLMDYIGINLATMNSCINPIALYFVSKKFKNCFQSCLCCCCYQSKSLMTSVPMNGTSIQWKNHDQNNHNTDRSSHKDSMN
Take B8: the percent of parent in the experiment with Gαi3 protein, P08754 was 120 % of w.t; in experiment [2], 3 % of w.t.

B9: wild type P9-ETA (human endothelin receptor type A with N-terminal P9 fusion), P25101 N29D (protein)
chain: DNPERYSTDLSNHVDDFTTFRGTELSFLVTTHQPTNLVLPSNGSMHNYCPQQTKITSAFKYINTVISCTIFIVGMVGNATLLRIIYQNKCMRNGPNALIASLALGDLIYVVIDLPINVFKLLAGRWPFDHNDFGVFLCKLFPFLQKSSVGITVLNLCALSVDRYRAVASWSRVQGIGIPLVTAIEIVSIWILSFILAIPEAIGFVMVPFEYRGEQHKTCMLNATSKFMEFYQDVKDWWLFGFYFCMPLVCTAIFYTLMTCEMLNRRNGSLRIALSEHLKQRREVAKTVFCLVVIFALCWFPLHLSRILKKTVYNEMDKNRCELLSFLLLMDYIGINLATMNSCINPIALYFVSKKFKNCFQSCLCCCCYQSKSLMTSVPMNGTSIQWKNHDQNNHNTDRSSHKDSMN
With B9, the percent of parent with Gαi3 protein, P08754 was 130 % of w.t; in experiment [2], 42 % of w.t.

B10: wild type P9-ETA (human endothelin receptor type A with N-terminal P9 fusion), P25101 K140I (protein)
chain: DNPERYSTNLSNHVDDFTTFRGTELSFLVTTHQPTNLVLPSNGSMHNYCPQQTKITSAFKYINTVISCTIFIVGMVGNATLLRIIYQNKCMRNGPNALIASLALGDLIYVVIDLPINVFILLAGRWPFDHNDFGVFLCKLFPFLQKSSVGITVLNLCALSVDRYRAVASWSRVQGIGIPLVTAIEIVSIWILSFILAIPEAIGFVMVPFEYRGEQHKTCMLNATSKFMEFYQDVKDWWLFGFYFCMPLVCTAIFYTLMTCEMLNRRNGSLRIALSEHLKQRREVAKTVFCLVVIFALCWFPLHLSRILKKTVYNEMDKNRCELLSFLLLMDYIGINLATMNSCINPIALYFVSKKFKNCFQSCLCCCCYQSKSLMTSVPMNGTSIQWKNHDQNNHNTDRSSHKDSMN
For the molecule B10, the percent of parent is 110 % of w.t with Gαi3 protein, P08754 and 18 % of w.t in experiment [2].

Source of the values: publication PMC5548930.
